Assay results published in paper PMC10681739, “High-throughput data and modeling reveal insights into the mechanisms of cooperative DNA-binding by transcription factor proteins”.

Biological target: ETS1:RUNX1 (Homo sapiens, UniProt P14921;Q01196 full;full)
Assay: gcPBM; 1 nM ETS1 + 25 nM RUNX1, anti-ETS1 signal, normalised
Details: tags: N-terminal GST (pDEST15), kept (PMC6008103); copies: 1;1; label: surface-attached array probe

| Binder | binding signal |
| --- | --- |
| Table S2 A row 762 (dsDNA) DNA 1: CAGAAAGAGGAAATGATGCGAGTCCACACCGCAGGC DNA 2: GCCTGCGGTGTGGACTCGCATCATTTCCTCTTTCTG | 2620 PBM fluorescence, median of replicate spots |
| Table S2 A row 1482 (dsDNA) DNA 1: CCATCCAGGAAGCTTATGGTGCAACCGCAGTGTGCC DNA 2: GGCACACTGCGGTTGCACCATAAGCTTCCTGGATGG | 2210 PBM fluorescence, median of replicate spots |
| Table S2 A row 548 (dsDNA) DNA 1: CTCTCACTTCCCGTGTGAGAAAAACCACAGAAAAGC DNA 2: GCTTTTCTGTGGTTTTTCTCACACGGGAAGTGAGAG | 2080 PBM fluorescence, median of replicate spots |
| Table S2 A row 769 (dsDNA) DNA 1: CAAGCCAACATCCTGACAGTTTAGAAACCACAGGAG DNA 2: CTCCTGTGGTTTCTAAACTGTCAGGATGTTGGCTTG | 1670 PBM fluorescence, median of replicate spots |
| Table S2 A row 294 (dsDNA) DNA 1: GCAGGACTTCCTGTGTTGTGCTAACCTCAAATTACA DNA 2: TGTAATTTGAGGTTAGCACAACACAGGAAGTCCTGC | 2660 PBM fluorescence, median of replicate spots |
| Table S2 A row 37 (dsDNA) DNA 1: AGAATCGCATCAGGATGTGGTGAGGGAGCACATTTG DNA 2: CAAATGTGCTCCCTCACCACATCCTGATGCGATTCT | 2110 PBM fluorescence, median of replicate spots |
| Table S2 A row 340 (dsDNA) DNA 1: CAGAGCAGAGAGGAAGTGGTGGTGGCCACAGTCCCA DNA 2: TGGGACTGTGGCCACCACCACTTCCTCTCTGCTCTG | 2770 PBM fluorescence, median of replicate spots |
| Table S2 A row 988 (dsDNA) DNA 1: TCATGCTGCTTCCTGCCCAACCCGCAGTTCCGATAA DNA 2: TTATCGGAACTGCGGGTTGGGCAGGAAGCAGCATGA | 1730 PBM fluorescence, median of replicate spots |
| Table S2 A row 1256 (dsDNA) DNA 1: AGCCGTCATTCAGGATGTGGTGACAGACATGGAGAC DNA 2: GTCTCCATGTCTGTCACCACATCCTGAATGACGGCT | 2490 PBM fluorescence, median of replicate spots |
| Table S2 A row 386 (dsDNA) DNA 1: AACTGGGCGGAAAGAACGGCTAACCGCAAGCTGCCG DNA 2: CGGCAGCTTGCGGTTAGCCGTTCTTTCCGCCCAGTT | 3490 PBM fluorescence, median of replicate spots |
| Table S2 A row 276 (dsDNA) DNA 1: CAGCTGACAGGAAGGAGAGAACCACAGACAGTGCGA DNA 2: TCGCACTGTCTGTGGTTCTCTCCTTCCTGTCAGCTG | 2270 PBM fluorescence, median of replicate spots |
| Table S2 A row 1216 (dsDNA) DNA 1: CCCGGCCACTTCCGCCTATTGCGGGCGTCGGCTAGG DNA 2: CCTAGCCGACGCCCGCAATAGGCGGAAGTGGCCGGG | 3350 PBM fluorescence, median of replicate spots |
| Table S2 A row 1447 (dsDNA) DNA 1: ACACCTCAGGAAGTGGCAGAGACCACAACAAGTCAG DNA 2: CTGACTTGTTGTGGTCTCTGCCACTTCCTGAGGTGT | 2380 PBM fluorescence, median of replicate spots |
| Table S2 A row 342 (dsDNA) DNA 1: ACACCCCAGGAAGTGGCAGAGACCACAACAAGTCAG DNA 2: CTGACTTGTTGTGGTCTCTGCCACTTCCTGGGGTGT | 1810 PBM fluorescence, median of replicate spots |
| Table S2 A row 791 (dsDNA) DNA 1: CGGCAGGCAAGCAGGAAACCGCGAGTGGAGAAAGGG DNA 2: CCCTTTCTCCACTCGCGGTTTCCTGCTTGCCTGCCG | 2990 PBM fluorescence, median of replicate spots |
| Table S2 A row 1293 (dsDNA) DNA 1: AGGTCGCCCTCCGGATGCGGTCCCCACACCGCCTGC DNA 2: GCAGGCGGTGTGGGGACCGCATCCGGAGGGCGACCT | 3170 PBM fluorescence, median of replicate spots |
| Table S2 A row 1407 (dsDNA) DNA 1: TGTGTATGAGAACGGATATAGGTGGTTTTATAAGGA DNA 2: TCCTTATAAAACCACCTATATCCGTTCTCATACACA | 3120 PBM fluorescence, median of replicate spots |
| Table S2 A row 108 (dsDNA) DNA 1: CACTTCCTGTCAAAGCCAGTTCCTTAACCGCTTAGG DNA 2: CCTAAGCGGTTAAGGAACTGGCTTTGACAGGAAGTG | 2540 PBM fluorescence, median of replicate spots |
| Table S2 A row 127 (dsDNA) DNA 1: CAAGCCAGGAAGAGGGCCCTCACCAGAAACCGCACT DNA 2: AGTGCGGTTTCTGGTGAGGGCCCTCTTCCTGGCTTG | 1640 PBM fluorescence, median of replicate spots |
| Table S2 A row 1686 (dsDNA) DNA 1: TGAGCCTTGGAAGGAAATGATTCACCACAATACTGT DNA 2: ACAGTATTGTGGTGAATCATTTCCTTCCAAGGCTCA | 2590 PBM fluorescence, median of replicate spots |
| Table S2 A row 240 (dsDNA) DNA 1: CAGGCTCGCCACAGGGGAAGTGGTTAGGGCGGGTCC DNA 2: GGACCCGCCCTAACCACTTCCCCTGTGGCGAGCCTG | 2340 PBM fluorescence, median of replicate spots |
| Table S2 A row 1754 (dsDNA) DNA 1: AACAGTTGCATAGGAAGTGGTCAGCTCTCCTCCACC DNA 2: GGTGGAGGAGAGCTGACCACTTCCTATGCAACTGTT | 2050 PBM fluorescence, median of replicate spots |

| Binder | binding signal |
| --- | --- |
| Table S2 A row 315 (dsDNA) DNA 1: GAAAAATGAAGTTTCCGCAGTAACCACAACACAGCC DNA 2: GGCTGTGTTGTGGTTACTGCGGAAACTTCATTTTTC | 1900 PBM fluorescence, median of replicate spots |
| Table S2 A row 337 (dsDNA) DNA 1: ATAGTCTCTTCCTGTGTTGCAAACCACAGGTCCACC DNA 2: GGTGGACCTGTGGTTTGCAACACAGGAAGAGACTAT | 1690 PBM fluorescence, median of replicate spots |
| Table S2 A row 843 (dsDNA) DNA 1: CCTTGCTACAGGATGTTTTGACCACGAGCCCAGGAG DNA 2: CTCCTGGGCTCGTGGTCAAAACATCCTGTAGCAAGG | 2240 PBM fluorescence, median of replicate spots |
| Table S2 A row 1415 (dsDNA) DNA 1: AGGCTGTGTGAAGGATGTGGTCAGGCGGAGGCCAGG DNA 2: CCTGGCCTCCGCCTGACCACATCCTTCACACAGCCT | 2710 PBM fluorescence, median of replicate spots |
| Table S2 A row 1075 (dsDNA) DNA 1: GTTGCAGGAAACGATGGGTTTTGTGGTATGAACTGC DNA 2: GCAGTTCATACCACAAAACCCATCGTTTCCTGCAAC | 2140 PBM fluorescence, median of replicate spots |
| Table S2 A row 692 (dsDNA) DNA 1: TGCGAGGTTGCCAGGAAACCGCGAAGCCGAGGTCCC DNA 2: GGGACCTCGGCTTCGCGGTTTCCTGGCAACCTCGCA | 2180 PBM fluorescence, median of replicate spots |
| Table S2 A row 101 (dsDNA) DNA 1: GAGGGACAGGATGCCGCCAGGAACCACAAGAGCTTC DNA 2: GAAGCTCTTGTGGTTCCTGGCGGCATCCTGTCCCTC | 2530 PBM fluorescence, median of replicate spots |
| Table S2 A row 1201 (dsDNA) DNA 1: GTTGAGTTCCGGGGGAGGTTGAGTTCCTGCGGTCAA DNA 2: TTGACCGCAGGAACTCAACCTCCCCCGGAACTCAAC | 1630 PBM fluorescence, median of replicate spots |
| Table S2 A row 464 (dsDNA) DNA 1: AGCGACAGCGGATGCTCTCTGGCCGCAACATTCTTT DNA 2: AAAGAATGTTGCGGCCAGAGAGCATCCGCTGTCGCT | 2940 PBM fluorescence, median of replicate spots |
| Table S2 A row 789 (dsDNA) DNA 1: TCCCACTGCGACGGAAGCACAGCGGTTAAGATTGCA DNA 2: TGCAATCTTAACCGCTGTGCTTCCGTCGCAGTGGGA | 2460 PBM fluorescence, median of replicate spots |
| Table S2 A row 328 (dsDNA) DNA 1: AGTAGAGGAGGAAGTTAAATGTGGTTTTCTGGGTGG DNA 2: CCACCCAGAAAACCACATTTAACTTCCTCCTCTACT | 2960 PBM fluorescence, median of replicate spots |
| Table S2 A row 979 (dsDNA) DNA 1: GCGCGGCCCGGAAGGGGGTAACCGCTGAGTCTTTGA DNA 2: TCAAAGACTCAGCGGTTACCCCCTTCCGGGCCGCGC | 1910 PBM fluorescence, median of replicate spots |
| Table S2 A row 388 (dsDNA) DNA 1: GCAGTTTCAAGAGGATGTGGTCTCTTTCACTGCCTG DNA 2: CAGGCAGTGAAAGAGACCACATCCTCTTGAAACTGC | 1800 PBM fluorescence, median of replicate spots |
| Table S2 A row 1108 (dsDNA) DNA 1: CATGGGGAGGAGGAAGTGGTGGCGGCCGCAGGCCAG DNA 2: CTGGCCTGCGGCCGCCACCACTTCCTCCTCCCCATG | 2880 PBM fluorescence, median of replicate spots |
| Table S2 A row 224 (dsDNA) DNA 1: GACCAATGTAAACAAGGATGTGGGTTCTCCGGGCAC DNA 2: GTGCCCGGAGAACCCACATCCTTGTTTACATTGGTC | 2020 PBM fluorescence, median of replicate spots |
| Table S2 A row 18 (dsDNA) DNA 1: GAGGCAGGCGGATGTCAGTGTGGTTAGAGCACAGTG DNA 2: CACTGTGCTCTAACCACACTGACATCCGCCTGCCTC | 3320 PBM fluorescence, median of replicate spots |
| Table S2 A row 195 (dsDNA) DNA 1: GCTCCCGGATGTTCTGGGGATCTGCGGCCGCCTGGC DNA 2: GCCAGGCGGCCGCAGATCCCCAGAACATCCGGGAGC | 2440 PBM fluorescence, median of replicate spots |
| Table S2 A row 1175 (dsDNA) DNA 1: TTGCTCCCGGAAGCCCCGCCCGACCGCGGCTCCTGA DNA 2: TCAGGAGCCGCGGTCGGGCGGGGCTTCCGGGAGCAA | 1960 PBM fluorescence, median of replicate spots |
| Table S2 A row 1340 (dsDNA) DNA 1: CATTTCAGTCCAGGATGTGGGTGCACACACCGCTTC DNA 2: GAAGCGGTGTGTGCACCCACATCCTGGACTGAAATG | 2860 PBM fluorescence, median of replicate spots |
| Table S2 A row 1390 (dsDNA) DNA 1: CTGTGACACGTGCGGAAGCTGTGGTAAGTGCATCCA DNA 2: TGGATGCACTTACCACAGCTTCCGCACGTGTCACAG | 3240 PBM fluorescence, median of replicate spots |
| Table S2 A row 149 (dsDNA) DNA 1: TTCAACAGGATATTGCTTTGTTACCACAGGCCCTTT DNA 2: AAAGGGCCTGTGGTAACAAAGCAATATCCTGTTGAA | 3020 PBM fluorescence, median of replicate spots |
| Table S2 A row 83 (dsDNA) DNA 1: GACAGACCTTAGGAAGTCGCGGTTTCATCAGGGCTT DNA 2: AAGCCCTGATGAAACCGCGACTTCCTAAGGTCTGTC | 1710 PBM fluorescence, median of replicate spots |
